These results are taken from patent US20100323905A1 (published 2010).

Assay [1] has as its target T1, recombinant full-length human PABPN1 (nuclear poly(A)-binding protein 1), T7-tagged and His-tagged, produced … (human, UniProt Q86U42 1-306).
T1 construct: also called recombinant PABPN1; T7-tagged PABPN1; not shown: T7 Tag and His Tag from vector pET28a
T1 sequence (looked up): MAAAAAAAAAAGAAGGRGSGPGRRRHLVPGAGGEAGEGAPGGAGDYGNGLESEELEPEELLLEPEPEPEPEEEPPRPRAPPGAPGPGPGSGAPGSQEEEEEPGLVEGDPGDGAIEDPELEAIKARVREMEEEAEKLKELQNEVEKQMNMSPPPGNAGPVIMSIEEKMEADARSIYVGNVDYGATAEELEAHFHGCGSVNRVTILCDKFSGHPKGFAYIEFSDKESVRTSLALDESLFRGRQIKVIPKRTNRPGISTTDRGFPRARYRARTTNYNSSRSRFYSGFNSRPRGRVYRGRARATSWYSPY
In words: BIAcore affinity measurement (SPR). On the technique in general: Surface plasmon resonance follows binding to a sensor surface in real time, without labels.

Assay [2] deals with T1, recombinant full-length human PABPN1 …. In words: BIAcore affinity measurement (SPR). The source holds these as a separate data set.
Assay [3] has as its target T2, native PABPN1 purified from bovine calf thymus (bovine, UniProt Q28165 2-306).
T2 sequence (looked up): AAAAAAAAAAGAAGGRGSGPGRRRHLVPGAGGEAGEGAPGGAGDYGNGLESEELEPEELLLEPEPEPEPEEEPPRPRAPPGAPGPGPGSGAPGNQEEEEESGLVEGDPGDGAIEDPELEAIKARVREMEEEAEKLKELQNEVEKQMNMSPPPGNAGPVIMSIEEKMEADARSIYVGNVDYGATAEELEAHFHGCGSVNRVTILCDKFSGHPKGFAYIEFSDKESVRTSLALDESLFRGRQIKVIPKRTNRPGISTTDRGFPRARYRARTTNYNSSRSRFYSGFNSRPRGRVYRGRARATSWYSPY
In words: sandwich ELISA: 3F5 coated, native PABPN1 captured. (In general: In an ELISA, binding on a coated surface is turned into a signal by an enzyme label.)

Assay [4] concerns the target T2, native PABPN1 purified from bovine calf …. In words: affinity measurement (Biacore).
In assay [5] the target is T3, PABPN1 point mutant V126S (UniProt Q86U42 1-306, limits assumed).
T3 sequence (looked up): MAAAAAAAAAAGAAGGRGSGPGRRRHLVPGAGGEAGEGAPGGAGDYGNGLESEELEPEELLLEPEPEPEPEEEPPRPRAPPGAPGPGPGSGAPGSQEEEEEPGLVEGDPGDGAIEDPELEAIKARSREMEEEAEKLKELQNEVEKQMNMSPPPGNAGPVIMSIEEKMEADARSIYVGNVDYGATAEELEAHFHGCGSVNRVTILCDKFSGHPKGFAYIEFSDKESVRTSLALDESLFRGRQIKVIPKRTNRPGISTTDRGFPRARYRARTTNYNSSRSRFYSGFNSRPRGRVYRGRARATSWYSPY
Description: Western blot of purified mutant proteins. In general terms: A western blot detects proteins with antibodies after separation by electrophoresis.
Description: (§1) Proteins were separated by SDS-PAGE followed by Coomassie Brilliant Blue staining or transfer to PVDF Western blotting membranes (Roche Diagnostics, Almere, The Netherlands) using the Mini-PROTEAN 8 system for gel electrophoresis and the Mini Trans-Blot Cell for blotting of the proteins (Bio-Rad Laboratories, Hercules, Calif., USA). […] For phage detection a 10,000-fold dilution of a HRP-conjugated monoclonal antibody which binds to the phage coat protein was used (Amersham Biosciences, Uppsala, Sweden).

For assay [6], the target named is T4, PABPN1 point mutant M129A (UniProt Q86U42 1-306, limits assumed).
T4 sequence (looked up): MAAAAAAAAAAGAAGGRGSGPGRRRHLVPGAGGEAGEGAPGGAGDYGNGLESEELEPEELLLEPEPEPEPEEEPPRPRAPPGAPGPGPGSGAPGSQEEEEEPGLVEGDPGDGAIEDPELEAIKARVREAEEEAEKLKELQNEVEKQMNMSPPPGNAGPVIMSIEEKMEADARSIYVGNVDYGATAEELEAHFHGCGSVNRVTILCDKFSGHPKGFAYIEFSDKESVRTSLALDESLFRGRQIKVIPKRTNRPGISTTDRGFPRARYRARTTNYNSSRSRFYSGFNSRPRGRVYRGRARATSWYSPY
In words: Western blot of purified mutant proteins.
Description: as §1

The target in assay [7] is T1, recombinant full-length human PABPN1 …. In words: BIAcore affinity measurement (SPR, CM5 chip).
Description: Affinities were calculated using Biacore evaluation software.
Another assay has as its target T5, beta amyloid Aβ 1-42 (UniProt P05067 672-713).
T5 construct: domain: Aβ 1-42; The numbers 1-42 count on the Aβ peptide, not on the precursor; In immunohistochemistry the target is amyloid deposited in human brain sections; also called amyloid b-42; Amyloid-b-42
In words: ELISA.

What is called Kd is the free concentration of one partner at which half of the binding sites on the other are occupied at equilibrium, for simple one-to-one binding.

T5 sequence (P05067 672-713 limits assumed): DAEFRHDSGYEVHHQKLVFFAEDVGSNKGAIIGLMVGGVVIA

B1: VHH 08 (VHH)
VHH: EVQLVESGGGLVQPGGSLRLSCVASGRTSRISRMAWFRQVPGNERELVATMSSSGITSYAGSVKGRFTISRDNAKNTVDLQMNSLKPEDTAVYYCKYSSRWNIYWGQGTQVTVSS
notes: Alignment gaps removed
Turning to B1, the Kd in assay [1] and in assay [2] was 57 nM throughout.

B2: VHH 18 (VHH)
VHH: AVQLVESGGGLVQAGGSLRLSCAASGSIVSLATMGWYRQAPGNQRELVATMSSSGITSYAGSVKGRFTYSRDNAKNTVDLQMNSLKPEDTAVYYCKYSSRWNIYWGQGTLVTVSS
notes: Alignment gaps removed
For the molecule B2, the equilibrium dissociation constant (Kd) in assay [1] and in assay [2] was 7 nM each time.

B3: VHH 3A9 (VHH)
VHH: QVQLVESGGDLVQAGGSLRLSCAASGHTFDSYGMGWFRQRPGKGREFVAAITMIGGSTHYADSAKGRFTISRDNTKNTISLQMNSLKPEDTAVYYCHAFSRSRFEGYWGQGIQVTVSS
Regarding B3, in assay [2], the Kd worked out at 8 nM.

B4: VHH 29 (VHH)
VHH: QVQLVESGGGLVQAGDSLRLSCAASGRTFSSYVMGWFRQAPGKEREFVAAVTGGGISTYYADSVKGRFTISRDNAKNTVYLQMNSLTPEDTAVYYCYARRLNSWGQGTQVTISS
notes: also called antibody fragment 29
B4: the Kd in assay [1] and in assay [2] was 11 nM in each case. Further, the binding result in assay [3] is on record as “binds”.

B5: VHH 3F5 (VHH)
VHH: EVQLVESGGGLVQAGGSLRLSCAASGRTFSGYGMGWFRQAPGKEREFVAAISWRGGNTYYADSVKGRFTISRDNAKNTVWLQMNSLKPEDTAVYYCSGFVRTRDDPSRIRNYWGQGTQVTVST
notes: also called anti-PABPN1 VHH (3F5)
Take B5: the Kd in assay [4] and in assay [7] was 5 nM throughout. Moreover, the binding result in assay [5] and in assay [6] was “no binding” throughout.

B6: VHH 11D (VHH)
VHH: AVQLVESGGGLVQAGGSLRLSCAASQRTFSSYVMGWFRQAPGKEREFVAAIGWSGGSTAYADSVKGRFTISRDNARNTVYLQMNSLKPEDTAVYYCASAPTRWVPRDSRFYDRWGQGTRVTVSS
notes: Selected against amyloid b-42
For B6, in the assay with beta amyloid Aβ 1-42, the binding result is “binds”.

B7: VHH 3A (VHH)
VHH: AVQLVESGGGLVRDGGSLRLSCAASGRTFSSYVMGWFRQAPGKEREFVAAIGWSGGSTAYADSVKGRFTISRDNARNTVYLQMNSLKPEDTAVYYCASAPTRWVPRDSRFYDRWGQGTRVTVSS
notes: Selected against Aβ 1-42; 15N-labeled in the NMR titration; also called anti-Aβ1-42 VHH 3A
B7: the binding result with beta amyloid Aβ 1-42 was “binds”.

B8: VHH 3E9 (VHH)
VHH: QVQLQESGGGLVQPGGSLRLSCVASGFTFSDNAMSWVRRAPGKGLEWVSAINRAGDSARYADSVKGRFTISRDNAKNTLYLQMNSLKPEDTAVYYCTNGGNYRGQGTQVTVSA
For the molecule B8, the Kd in assay [2] was found to be 14 nM.
